Legend:
ArdC [1] = target: T1, ArdC (Escherichia coli plasmid R388 …, UniProt Q6I6B2 22-318); experiment: EMSA; 0-1 uM ArdC, 50 nM DNA; preferred over dsDNA; EMSA: 50 mM NaCl, 25 mM Tris-HCl pH 7.5, 0.5 mM EDTA, room temperature 30 min, 50 nM DNA; 10% native PAGE in cold 1x TBE; conditions: protein: recombinant; label: 6FAM (5'); single strand
T1 sequence: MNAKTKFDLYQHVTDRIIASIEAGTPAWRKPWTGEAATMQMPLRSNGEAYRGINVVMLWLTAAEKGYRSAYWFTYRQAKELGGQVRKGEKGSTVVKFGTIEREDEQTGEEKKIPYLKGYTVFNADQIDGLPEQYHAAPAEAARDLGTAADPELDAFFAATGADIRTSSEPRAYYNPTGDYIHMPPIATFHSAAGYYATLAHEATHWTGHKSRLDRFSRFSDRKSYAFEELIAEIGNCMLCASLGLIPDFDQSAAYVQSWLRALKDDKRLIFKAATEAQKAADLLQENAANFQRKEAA

ArdC [2] = target: T1, ArdC; experiment: EMSA; 0-1 uM ArdC, 50 nM DNA; preferred over blunt duplex; EMSA: 50 mM NaCl, 25 mM Tris-HCl pH 7.5, 0.5 mM EDTA, room temperature 30 min, 50 nM DNA; 10% native PAGE in cold 1x TBE; conditions: protein: recombinant, label: 6FAM (5' of strand 1)

TACGCTCTTGGGCGCGCTGAATATGAGGTCAAGGCCGATGCGCTC (ssDNA) [Fluor-T87I2 (45 b ssDNA)]: binds (ArdC [1]).

B1: Fluor-T87I2 + Mid1 (partial duplex) (mixed)
DNA 1: TACGCTCTTGGGCGCGCTGAATATGAGGTCAAGGCCGATGCGCTC
DNA 2: GAGCGCATCGGCCTTGAC
B1: binds (ArdC [2]; 18 bp duplex, 5' overhang 27 nt (strand 1)).

B2: Fluor-T87I2 + Mid2 (partial duplex) (mixed)
DNA 1: TACGCTCTTGGGCGCGCTGAATATGAGGTCAAGGCCGATGCGCTC
DNA 2: CTCATATTCAGCGCGCCCAAGAGCGTA
B2: binds (ArdC [2]; 27 bp duplex, 3' overhang 18 nt (strand 1)).
